According to the RNAGym collection of RNA variant scans (doi:10.7554/elife.80360):

B1: CPEB3 Ribozyme (parent)
chain: GGGGGCCACAGCAGAAGCGUUCACGUCGCGGCCCCUGUCAGAUUCUGGUGAAUCUGCGAAUUCUGCUGU

Variants of: B1
Assay: self-cleavage, relative activity (ratio to wild type); higher = more cleavage; co-transcriptional
GGCGGACACAGCAGAAGCGUUCACGUCGCGGCCCCUGUCAGAUUCUGGUGAAUCUGCGAAUUCUGCUGU [G3C C6A] gave a self-cleavage of 0.0513.
Work on GGCGGCCACAGCAGAAGCGUUCACGUCGCGGCCCCUGUCAGAUUCUGGUGAAUCUGCCAAUUCUGCUGU [G3C G58C] yielded a self-cleavage of 0.0803.
GGCGGCCACAGCGGAAGCGUUCACGUCGCGGCCCCUGUCAGAUUCUGGUGAAUCUGCGAAUUCUGCUGU [G3C A13G] gave a self-cleavage of 0.18.
With GGCGGCCACAGCAGAAGCGUUCACGUCGCGGCGCCUGUCAGAUUCUGGUGAAUCUGCGAAUUCUGCUGU [G3C C33G] the self-cleavage was 0.0238.
GGCGGCCACAGCAGAAGCGUUCACGUCGAGGCCCCUGUCAGAUUCUGGUGAAUCUGCGAAUUCUGCUGU [G3C C29A] showed a self-cleavage of 0.0865.
For GGCGGCCACAGCAGAAGCGUUCACGUCGUGGCCCCUGUCAGAUUCUGGUGAAUCUGCGAAUUCUGCUGU [G3C C29U], the self-cleavage was 0.0376.
Work on GGCGGCCACAGCAGAAGCGUUCACGUCGCGGCCCCUGUCACAUUCUGGUGAAUCUGCGAAUUCUGCUGU [G3C G41C] yielded a self-cleavage of 0.0352.
GGCGGCCACAGCAGAAGCGUUCACGUCGCGGCCCCUGUCAGAUUCUGGUCAAUCUGCGAAUUCUGCUGU [G3C G50C] gave a self-cleavage of 0.0988.
GGCGGCCACAGCAGAAGCGUUCACGUCGCGGCCCCUGUCAGAUUCUGGUUAAUCUGCGAAUUCUGCUGU [G3C G50U] gave a self-cleavage of 0.133.
In the case of GGCGGCCACAGCAGAAGCGUUCACGUCGCGGCCCCUGUCAGAUUCUGGUGAAUCUGCGAUUUCUGCUGU [G3C A60U], the self-cleavage is reported as 0.0697.
GGCGGCCACAGCAGAAGCGUUCACGUAGCGGCCCCUGUCAGAUUCUGGUGAAUCUGCGAAUUCUGCUGU [G3C C27A] gave a self-cleavage of 0.0183.
Variant GGCGGCCACAGCAGAAGCGUUCACGUCGCGGCCCCUGUCAGAUUCUGGUGAAUCUGCGAAUACUGCUGU [G3C U62A] has a self-cleavage of 0.0658.
Variant GGCGCCCACAGCAGAAGCGUUCACGUCGCGGCCCCUGUCAGAUUCUGGUGAAUCUGCGAAUUCUGCUGU [G3C G5C] has a self-cleavage of 0.0475.
Work on GGAGGCCACAGCAGAAGCGUUCACGUCGCGGCCCCUGUCAGAUUCUGGUGAAUCUGCGAAUUCUGCUGC [G3A U69C] yielded a self-cleavage of 0.97.
GGCGGCCACAGCAGAAGCGUUCACGUCGCGGCCCCUGUCAGAUUCUGGUGAAACUGCGAAUUCUGCUGU [G3C U53A] showed a self-cleavage of 0.0705.
Work on GGAGGCCACAGCAGAAGCGUUCACGUCGCGGCCCCUGUCAGAUUCUGGUGAAUCUGCGAAUUCGGCUGU [G3A U64G] yielded a self-cleavage of 0.521.
For GGAGGCCACAGCAGAAGCGUUCACGUCGCGGCCCCUGUCAGAUUCUGGUGAAUCUGCGAAUUCCGCUGU [G3A U64C], the self-cleavage was 0.436.
In the case of GGCGGCCACAGCAGAAGCGUUCACGUCGCGGCCCCUGUCAGAUUCUGGUGAAUCUGCGAAUUUUGCUGU [G3C C63U], the self-cleavage is reported as 0.171.
With GGCGGCCACAGCAGAAGCGUUCACGUCGCGGCCCCUGUCAGAUUCUGGUGAAUCUGCGAAUUGUGCUGU [G3C C63G] the self-cleavage was 0.0687.
GGCGGCCACAGCAGAAGCGUUCACGUCGCGGCCCCUGUCAGAUUCUGGUGAAUCUGCGAAUUCUGCCGU [G3C U67C] gave a self-cleavage of 0.218.
With GGCGGCCACAGCAGAAGCGUUCACGUCGCGGCCCCUGUCAGAUUCUGGUGAAUCUGCGUAUUCUGCUGU [G3C A59U] the self-cleavage was 0.0529.
GGUGGCCACAGCAGAAGCGUUCACGUCGCGGCCCCUGUCAGCUUCUGGUGAAUCUGCGAAUUCUGCUGU [G3U A42C] gave a self-cleavage of 0.0373.
With GGUGGCCACAGCAGAAGCGUUCACGUCGCGGCCCCUGUCAGUUUCUGGUGAAUCUGCGAAUUCUGCUGU [G3U A42U] the self-cleavage was 0.0748.
GGUGGCCACAGCAGAAGCGUUCACGUCGCGGCCCCUGUCAGGUUCUGGUGAAUCUGCGAAUUCUGCUGU [G3U A42G] showed a self-cleavage of 0.11.
In the case of GGCGGCCACAGCAGAAGCGUUCACGUCGCGGCCCCUGUCAGAUUCUGGUGAAUUUGCGAAUUCUGCUGU [G3C C54U], the self-cleavage is reported as 0.125.
Variant GGCGGCCACAGCAGAAGCGUUCACGUCGCGGCCCCUGUCAGAUUCUGGUGAAUAUGCGAAUUCUGCUGU [G3C C54A] has a self-cleavage of 0.0635.
For GGCGGCCACAGCAGAAGCGUUCACGUCGCGGCCCCUGUCAGAUUCUGGAGAAUCUGCGAAUUCUGCUGU [G3C U49A], the self-cleavage was 0.168.
Work on GGCGGCCAUAGCAGAAGCGUUCACGUCGCGGCCCCUGUCAGAUUCUGGUGAAUCUGCGAAUUCUGCUGU [G3C C9U] yielded a self-cleavage of 0.441.
In the case of GGCGGCCACAGCAGAAGCGUUCACGUCGCGGCCCCUGUCAGAUUCUGGUGAAUCUCCGAAUUCUGCUGU [G3C G56C], the self-cleavage is reported as 0.0668.
GGCGGCCACAGCAGAAGCGUUCACGUCGCGGCCCCUGUCAGAUUCUGGUGAAUCUACGAAUUCUGCUGU [G3C G56A] gave a self-cleavage of 0.0675.
Work on GGCGGCCACAGCAGAAGCGUUCAAGUCGCGGCCCCUGUCAGAUUCUGGUGAAUCUGCGAAUUCUGCUGU [G3C C24A] yielded a self-cleavage of 0.0571.
In the case of GGCGGCCACAGCAGAAGCGUUCACGUCGCGGCCCCUGUCAGAUUCUGGUGAAUCUGCGAAUUCUGUUGU [G3C C66U], the self-cleavage is reported as 0.127.
Variant GGCGGCCACAGCAGAAGCGCUCACGUCGCGGCCCCUGUCAGAUUCUGGUGAAUCUGCGAAUUCUGCUGU [G3C U20C] has a self-cleavage of 0.
Work on GGCGGCCACAGCAGAAGCGUUCACGUCGCGGCCCCUGUCAGAUCCUGGUGAAUCUGCGAAUUCUGCUGU [G3C U44C] yielded a self-cleavage of 0.132.
For GGCGGCCACAGGAGAAGCGUUCACGUCGCGGCCCCUGUCAGAUUCUGGUGAAUCUGCGAAUUCUGCUGU [G3C C12G], the self-cleavage was 0.0121.
With GGCGGCCACAGCAGAAGCUUUCACGUCGCGGCCCCUGUCAGAUUCUGGUGAAUCUGCGAAUUCUGCUGU [G3C G19U] the self-cleavage was 0.0242.
Work on GGUGGCCACAGCAGAAGCGUUCACGUCGCGGCCCCUGUCAGAUUCUGGUGACUCUGCGAAUUCUGCUGU [G3U A52C] yielded a self-cleavage of 0.0886.
GGUGGCCACAGCAGAAGCGUUCACGUCGCGGCCCCUGUCAGAUUCUGGUGAGUCUGCGAAUUCUGCUGU [G3U A52G] gave a self-cleavage of 0.122.
For GGUGGCCACAGCAGAAGCGUUCACGUCGCGGCCCCUGUCAGAUUCUGGUGAUUCUGCGAAUUCUGCUGU [G3U A52U], the self-cleavage was 0.142.
